Results reported in article PMC4148960.

Legend:
[1] = target: GST-fused Grg1 (UniProt Q62440); assay: pull-down; GST-Grg1 or GST-Grg5 from lysed BL21 E. coli incubated with S^35-labelled in vitro translated Sox2 proteins; pulled down with Glutathione-sepharose 4B beads; PAGE gel on a phosphorimager
[2] = target: GST-fused Grg5 (UniProt P63002); assay: as above
[3] = target: MYC-Grg5 (in COS-7 cells) (UniProt P63002)
Chain of MYC-Grg5 (in COS-7 cells) (P63002 whole entry): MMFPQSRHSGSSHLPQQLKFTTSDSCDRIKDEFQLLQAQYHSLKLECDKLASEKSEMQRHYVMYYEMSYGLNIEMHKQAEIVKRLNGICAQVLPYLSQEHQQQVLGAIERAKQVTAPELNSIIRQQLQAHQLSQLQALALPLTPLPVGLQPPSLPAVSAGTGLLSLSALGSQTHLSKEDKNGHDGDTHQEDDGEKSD

Chain of radiolabelled Sox2^M203–209 (in vitro translated) (P48432 whole entry): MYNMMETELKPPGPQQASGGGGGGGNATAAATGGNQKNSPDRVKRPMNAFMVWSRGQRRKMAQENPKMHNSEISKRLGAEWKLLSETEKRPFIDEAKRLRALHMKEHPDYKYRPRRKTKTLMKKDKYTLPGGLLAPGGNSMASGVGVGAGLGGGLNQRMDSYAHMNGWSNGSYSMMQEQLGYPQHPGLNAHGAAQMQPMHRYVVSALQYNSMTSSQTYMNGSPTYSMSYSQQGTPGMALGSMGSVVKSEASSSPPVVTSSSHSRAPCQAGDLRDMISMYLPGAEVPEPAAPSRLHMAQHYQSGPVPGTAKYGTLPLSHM
Chain of GST-fused Grg1 (Q62440 whole entry, the tested form may be a part): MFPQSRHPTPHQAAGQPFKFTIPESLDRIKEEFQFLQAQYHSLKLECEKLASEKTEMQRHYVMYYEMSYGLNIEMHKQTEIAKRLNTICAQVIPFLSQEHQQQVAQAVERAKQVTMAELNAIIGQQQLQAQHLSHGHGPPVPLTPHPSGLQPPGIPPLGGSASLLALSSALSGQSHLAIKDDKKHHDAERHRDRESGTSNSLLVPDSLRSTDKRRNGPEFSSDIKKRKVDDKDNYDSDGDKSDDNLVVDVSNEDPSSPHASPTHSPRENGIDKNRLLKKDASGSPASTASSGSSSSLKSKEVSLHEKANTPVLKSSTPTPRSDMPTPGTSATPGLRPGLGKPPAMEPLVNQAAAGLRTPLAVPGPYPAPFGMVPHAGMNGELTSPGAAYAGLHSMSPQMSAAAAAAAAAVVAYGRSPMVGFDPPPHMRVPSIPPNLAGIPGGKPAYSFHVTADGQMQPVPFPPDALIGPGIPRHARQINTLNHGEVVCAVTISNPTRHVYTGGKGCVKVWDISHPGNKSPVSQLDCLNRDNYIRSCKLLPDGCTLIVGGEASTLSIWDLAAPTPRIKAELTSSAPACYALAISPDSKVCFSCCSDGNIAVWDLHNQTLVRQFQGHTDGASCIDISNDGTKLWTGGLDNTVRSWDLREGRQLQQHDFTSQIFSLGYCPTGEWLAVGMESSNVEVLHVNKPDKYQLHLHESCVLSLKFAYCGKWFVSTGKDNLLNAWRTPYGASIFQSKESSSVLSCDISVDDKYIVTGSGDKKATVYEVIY
Chain of GST-fused Grg5 (P63002 whole entry, the tested form may be a part): as the sequence (P63002 whole entry) above
Chain of Sox2^M203–209 mutant (transfected, COS-7 cells) (P48432 whole entry, change not shown): as the sequence (P48432 whole entry) above

fold decrease in the amount pulled down against WT Sox2 [1]	fold decrease in the amount pulled down against WT Sox2 [2]	subcellular translocation assay: proportion of co-transfected COS-7 cells with altered distribution of MYC-Grg5, mutant against WT Sox2 [3]	Substance
4 fold	4 fold		radiolabelled Sox2^M203–209 (in vitro translated) (from UniProt P48432 1-319) (natural protein)
		50%	Sox2^M203–209 mutant (transfected, COS-7 cells) (from UniProt P48432 1-319) (natural protein)
